This note sets out measurements from patent US8357523B2, “Beta-glucosidase variant enzymes and related polynucleotides” (Codexis, Inc., priority 2009, dated 2013).

Numbering of substitutions follows the chain as printed.

B1: 48 (protein)
chain: STAIAQEGAAPAAILHPEKWPRPATQRLIDPAVEKRVDALLKQLSVEEKVGQVIQGDIGTITPEDLRKYPLGSILAGGDSGPNGDDRAPPKEWLDLADAFYRVSLEKRPGHTPIPVLFGIDAVHGHGNIGSATIFPHNIALGATHDPELLRRIGEVTAVEMAATGIDWTFAPALSVVRDDRWGRTYEGFSEDPEIVAAYSAAIVEGVQGKFGSKDFMAPGRIVASAKHFLADGGTDQGRDQGDARISEDELIRIHNAGYPPAIDAGVLTVMASFSSWQGIKHHGHKQLLTDVLKGQMGFNGFIVGDWNAHDQVPGCTKFNCPTSLIAGLDMYMAADSWKQLYENTLAQVKDGTIPMARLDDAVRRILRVKVLAGLFEKPAPKDRPGLPGLETLGSPEHRAVGREAVRKSLVLLKNDKGTLPLSPKARVLVAGDGADNIGKQSGGWTISWQGTGNRNDEFPGATSILGGIRDAVADAGGSVEFDVAGQYKTKPDVAIVVFGEEPYAEFQGDVETLEYQPDQKQDLALLKKLKDQGIPVVAVFLSGRPMWVNPELNASDAFVAAWLPGTEGGGVADVLFTDKAGKVQHDFAGKLSYSWPRTAAQTTVNRGDADYNPLFAYGYGLTYKDKSKVGTLPEESGVPAEARQNAGIYFRAGALRLPGRFL
B2: 68 (protein)
chain: B1 chain with D79N, P219I
B3: 49 (protein)
chain: B1 chain with D79N, Q487D
B4: 64 (protein)
chain: B1 chain with D79N, A162V
B5: 73a (protein)
chain: B1 chain with T60Y, D79N
B6: 71 (protein)
chain: B1 chain with D79N, A202L
B7: 59 (protein)
chain: B1 chain with D79N, E155Q
B8: 52 (protein)
chain: B1 chain with D79N, L141I
B9: 66 (protein)
chain: B1 chain with D79N, P219E
B10: 73b (protein)
chain: B1 chain with D79N, A202S
B11: 69 (protein)
chain: B1 chain with D79N, P219T
B12: 53 (protein)
chain: B1 chain with D79N, I153T
B13: 58 (protein)
chain: B1 chain with D79N, E155M
B14: 50 (protein)
chain: B1 chain with D79N, K629C
B15: 57 (protein)
chain: B1 chain with D79N, I222C
B16: 72 (protein)
chain: B1 chain with V46F, D79N, I222A
B17: 73 (protein)
chain: B1 chain with D79N, I222V
B18: 51 (protein)
chain: B1 chain with D79N, D519G
B19: 67 (protein)
chain: B1 chain with D79N, P219C
B20: 63 (protein)
chain: B1 chain with D79N, R151W
B21: 65 (protein)
chain: B1 chain with D79N, P219Q
B22: 56 (protein)
chain: B1 chain with D79N, S225F
B23: 62 (protein)
chain: B1 chain with D79N, E155W
B24: 55 (protein)
chain: B1 chain with D79N, S225T
B25: 54 (protein)
chain: B1 chain with D79N, L663Q
B26: 60 (protein)
chain: B1 chain with D79N, E155K
B27: 61 (protein)
chain: B1 chain with D79N, E155A
B28: 70 (protein)
chain: B1 chain with D79N, P219L
B29: 136 (protein)
chain: STAIAQEGAAPAAILHPEKWPRPATQRLIDPAVEKRVDALLKQLSVEEKVGQVIQGDIGTITPEDLRKYPLGSILAGGNSGPNGDDRAPPKEWLDLADAFYRVSLEKRPGHTPIPVLFGIDAVHGHGKIGSATIFPHNIALGMTRDPELLRRIGEVTAQEMAATGIDWTFAPALSVVRDDRWGRTYEGFSEDPEIVASYSAAIVEGVQGKYGSKDFMAPGRAVACAKHFLADGGTDQGRDQGDARISEDELIRIHNAGYPPAIDAGVLTVMASFSSWQGIKHHGHKQLLTDVLKGQIGFNGFIVGDWNAHDQVPGCTKFNCPTSLIAGLDMYMAADSWKQLYENTLAQVKDGTIPMARLDDAVRRILRVKVLAGLFEKPAPKDRPGLPGLETLGSPEHRAVGREAVRKSLVLLKNDKGTLPLSPKARVLVAGDGADNIGKQSGGWTISWQGTGNRNDEFPGATSILGGIRDAVADAGGSVEFDVAGRYKTKPDVAIVVFGEEPYAEFQGDVETLEYQPDQKQDLALLKKLKDQGIPVVAVFLSGRPMWVNPELNASDAFVAAWLPGTEGGGVADVLFTDKAGKVQHDFAGKLSYSWPRTAAQTTVNRGDADYNPLFAYGYGLTYKDKSKVGTLPEESGVPAEARQNAGIYFRAGALRLPGRFL
B30: 140 (protein)
chain: B1 chain with A143M, H145R, V159Q, A201P, F211Y, P219V, S225C
B31: 144 (protein)
chain: B29 chain with M143A, Q159V, A162T, P219V, A222I, I297M, R487Q
B32: 142 (protein)
chain: B1 chain with N128K, H145R, A201P, P219V, K491R
B33: 134 (protein)
chain: B1 chain with D79N, N128K, A143M, H145R, V159E, A173C, A201P, F211Y, P219V
B34: 138 (protein)
chain: B1 chain with N128K, H145R, D146S, V159E, F211Y, I222S, S225C
B35: 143 (protein)
chain: B29 chain with K128N, Q159V, A222I, I297M, R487Q
B36: 141 (protein)
chain: B1 chain with D79N, A143M, H145R, F211Y, P219V, S225C
B37: 139 (protein)
chain: B1 chain with D79N, A143M, H145R, A162T, F211Y, S225C

One data set is described as follows: High throughput cellobiose assay: fold improvement in cellobiase activity of CelA variants over a control enzyme (Tables 2A-2D, 3, 5, 6, 7). As to conditions: 3.3 g/l cellobiose, 50° C. and pH 6.5; compared to native CelA (SEQ ID NO: 4). It is filed as biochemical.
With B1, the “Fold improvement over wildtype CelA” value was “++ (++ = 2.1 to 2.6 fold improvement over native CelA (SEQ ID NO: 4))”.
On the same count and under the same terms, in the case of B2 it was “+ (+ = 1.1 to 2.0 fold improvement over native CelA (SEQ ID NO: 4))”; in that of B3, “+ (+ = 1.1 to 2.0 fold improvement over native CelA (SEQ ID NO: 4))”.
As for B4, the “Fold improvement over wildtype CelA” value is reported as “+ (+ = 1.1 to 2.0 fold improvement over native CelA (SEQ ID NO: 4))”.
With B5, the “Fold improvement over wildtype CelA” value is “+ (+ = 1.1 to 2.0 fold improvement over native CelA (SEQ ID NO: 4))”.
Still for that read-out and setting: in the case of B6 it was “+ (+ = 1.1 to 2.0 fold improvement over native CelA (SEQ ID NO: 4))”; in that of B7, “+ (+ = 1.1 to 2.0 fold improvement over native CelA (SEQ ID NO: 4))”; in that of B8, “+ (+ = 1.1 to 2.0 fold improvement over native CelA (SEQ ID NO: 4))”.
The same measure, in the same setting: in the case of B9 it was “+ (+ = 1.1 to 2.0 fold improvement over native CelA (SEQ ID NO: 4))”.
Same read-out and setting: in the case of B10 it was “+ (+ = 1.1 to 2.0 fold improvement over native CelA (SEQ ID NO: 4))”; in that of B11, “+ (+ = 1.1 to 2.0 fold improvement over native CelA (SEQ ID NO: 4))”.
In the case of B12, the “Fold improvement over wildtype CelA” value was “+ (+ = 1.1 to 2.0 fold improvement over native CelA (SEQ ID NO: 4))”.
Still for that read-out and setting: in the case of B13 it was “+ (+ = 1.1 to 2.0 fold improvement over native CelA (SEQ ID NO: 4))”; in that of B14, “+ (+ = 1.1 to 2.0 fold improvement over native CelA (SEQ ID NO: 4))”; in that of B15, “+ (+ = 1.1 to 2.0 fold improvement over native CelA (SEQ ID NO: 4))”.
On the same count and under the same terms, for B16 the value was “+ (+ = 1.1 to 2.0 fold improvement over native CelA (SEQ ID NO: 4))”; for B17, “+ (+ = 1.1 to 2.0 fold improvement over native CelA (SEQ ID NO: 4))”; for B18, “+ (+ = 1.1 to 2.0 fold improvement over native CelA (SEQ ID NO: 4))”.
On the same count and under the same terms, for B19 the value was “+ (+ = 1.1 to 2.0 fold improvement over native CelA (SEQ ID NO: 4))”; for B20, “+ (+ = 1.1 to 2.0 fold improvement over native CelA (SEQ ID NO: 4))”; for B21, “+ (+ = 1.1 to 2.0 fold improvement over native CelA (SEQ ID NO: 4))”.
Take B22: the “Fold improvement over wildtype CelA” value was “+ (+ = 1.1 to 2.0 fold improvement over native CelA (SEQ ID NO: 4))”.
Take B23: the “Fold improvement over wildtype CelA” value is listed as “+ (+ = 1.1 to 2.0 fold improvement over native CelA (SEQ ID NO: 4))”.
Same read-out and setting: in the case of B24 it was “+ (+ = 1.1 to 2.0 fold improvement over native CelA (SEQ ID NO: 4))”; in that of B25, “+ (+ = 1.1 to 2.0 fold improvement over native CelA (SEQ ID NO: 4))”; in that of B26, “+ (+ = 1.1 to 2.0 fold improvement over native CelA (SEQ ID NO: 4))”.
Take B27: the “Fold improvement over wildtype CelA” value is reported as “+ (+ = 1.1 to 2.0 fold improvement over native CelA (SEQ ID NO: 4))”.
As to B28, the “Fold improvement over wildtype CelA” value is “+ (+ = 1.1 to 2.0 fold improvement over native CelA (SEQ ID NO: 4))”.

Still in this data set, the particulars now being: 3.3 g/l cellobiose, 55° C. and pH 6.0.
On to B29, for which the “Fold improvement over Control Variant No. 5 from Table 2A” value is recorded as “++ (++ = 1.1 to 6 fold improvement over control Variant No. 2)”.
The same measure, in the same setting: in the case of B30 it was “+++ (+++ = 6 to 13 fold improvement over control Variant No. 2)”; in that of B31, “+++ (+++ = 6 to 13 fold improvement over control Variant No. 2)”; in that of B32, “+++ (+++ = 6 to 13 fold improvement over control Variant No. 2)”.
Same read-out and setting: for B33 the value was “++ (++ = 1.1 to 6 fold improvement over control Variant No. 2)”.
On the same count and under the same terms, in the case of B34 it was “+++ (+++ = 6 to 13 fold improvement over control Variant No. 2)”; in that of B35, “+++ (+++ = 6 to 13 fold improvement over control Variant No. 2)”.
Take B36: the “Fold improvement over Control Variant No. 5 from Table 2A” value is given as “+++ (+++ = 6 to 13 fold improvement over control Variant No. 2)”.
Regarding B37, the “Fold improvement over Control Variant No. 5 from Table 2A” value is recorded as “+++ (+++ = 6 to 13 fold improvement over control Variant No. 2)”.
